Data reported in paper PMC3887213.
Positions count from the first letter of the chain named.

B1: LRRK2 RocCOR tandem domain (LexA-BD bait, wild type) [human] / TUBB4 C terminus (Phe-317 to Ala-444), GAL4-AD prey [human] (parent)
chain 1: KAVPYNRMKLMIVGNTGSGKTTLLQQLMKTKKSDLGMQSATVGIDVKDWPIQIRDKRKRDLVLNVWDFAGREEFYSTHPHFMTQRALYLAVYDLSKGQAEVDAMKPWLFNIKARASSSPVILVGTHLDVSDEKQRKACMSKITKELLNKRGFPAIRDYHFVNATEESDALAKLRKTIINESLNFKIRDQLVVGQLIPDCYVELEKIILSERKNVPIEFPVIDRKRLLQLVRENQLQLDENELPHAVHFLNESGVLLHFQDPALQLSDLYFVEPKWLCKIMAQILTVKVEGCPKHPKGIISRRDVEKFLSKKRKFPKNYMSQYFKLLEKFQIALPIGEEYLLVPSSLSDHRPVIELPHCENSEIIIRLYEMPYFPMGFWSRLINRLLEISPYMLSGRERALRPNRMYWRQGIYL
chain 2: FRGRMSMKEVDEQMLSVQSKNSSYFVEWIPNNVKTAVCDIPPRGLKMAATFIGNSTAIQELFKRISEQFTAMFRRKAFLHWYTGEGMDEMEFTEAESNMNDLVSEYQQYQDATAEEGEFEEEAEEEVA
B2: LRRK2 RocCOR tandem domain (LexA-BD bait, wild type) [human] / TUBB C terminus (Phe-317 to the stop codon), GAL4-AD prey [human] (parent)
chain 1: B1 chain 1
chain 2: B1 chain 2 with S16N, S19N, A49V, G117E, F119D, E120F, E121G, A123E, E124A, V127E

Variants of: B1
Test: quantitative yeast two-hybrid (Q-YTH)
Conditions: with TUBB4 C terminus (Phe-317 to Ala-444), n = 5, read off a plot

percent of parent [%] | Variant
86 | chain 1 T164A
62 | chain 1 T16D
115 | chain 1 T16A

Variants of: B2
Test: quantitative yeast two-hybrid (Q-YTH)
Conditions: with TUBB C terminus (Phe-317 to the stop codon), n = 5, read off a plot

Variant | percent of parent [%]
chain 1 T16D | 58
chain 1 T16A | 130

Further lines, results first:

percent of parent [%] | Variant
35 | chain 1 T164D
97 | chain 1 T164A
